# Measured values as given in article PMC8011926 (Journal of Medicinal Chemistry, 2020).
# Non-standard residues stand in square brackets, D forms with d. Residues, ends and D or L forms follow the SMILES beside them. No end group written: not given here.
# B1: [D-Ala^2]N/OFQ(1–13)-NH2 (peptide)
# peptide: F[dA]GFTGARKSARK-NH2
# modifications: N-terminus assumed
# SMILES: C[C@H](NC(=O)CNC(=O)[C@@H](NC(=O)[C@H](Cc1ccccc1)NC(=O)CNC(=O)[C@@H](C)NC(=O)[C@@H](N)Cc1ccccc1)[C@@H](C)O)C(=O)N[C@@H](CCCNC(=N)N)C(=O)N[C@@H](CCCCN)C(=O)N[C@@H](CO)C(=O)N[C@@H](C)C(=O)N[C@@H](CCCNC(=N)N)C(=O)N[C@@H](CCCCN)C(N)=O
# Target: N/OFQ peptide (NOP) receptor fused to Renilla luciferase (UniProt P41146)
# Sequence (P41146 whole entry, the tested form may be a part): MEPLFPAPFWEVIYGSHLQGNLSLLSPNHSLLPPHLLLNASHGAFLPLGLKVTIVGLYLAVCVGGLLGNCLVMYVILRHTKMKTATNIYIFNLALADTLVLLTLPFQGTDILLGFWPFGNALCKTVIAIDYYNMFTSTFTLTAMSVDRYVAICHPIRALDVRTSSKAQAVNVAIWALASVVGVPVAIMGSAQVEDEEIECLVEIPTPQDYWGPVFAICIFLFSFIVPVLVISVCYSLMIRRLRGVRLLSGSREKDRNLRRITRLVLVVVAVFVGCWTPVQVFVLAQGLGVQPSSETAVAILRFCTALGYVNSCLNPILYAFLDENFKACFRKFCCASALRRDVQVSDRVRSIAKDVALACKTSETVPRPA
Molecule,"pEC50 for promoting the NOP/G protein interaction (BRET, membranes with NOP-RLuc and Gβ1-RGFP)","pEC50 for promoting the NOP/β-arrestin 2 interaction (BRET, cells with NOP-RLuc and β-arrestin 2-RGFP)"
[AC3C^7]N/OFQ-NH2 (peptide),7.67 -log10 M,7.56 -log10 M
[AC5C^7]N/OFQ-NH2 (peptide),8.1 -log10 M,8.1 -log10 M
[AC5C^11]N/OFQ-NH2 (peptide),8.61 -log10 M,8.22 -log10 M
[Aib^7]N/OFQ-NH2 (peptide),8.92 -log10 M,8.4 -log10 M
[Aib^11]N/OFQ-NH2 (peptide),8.35 -log10 M,8.21 -log10 M

# Target: T1, mu opioid receptor (mu-RLuc/Gβ1-RGFP) (Homo sapiens, UniProt P35372)
# T1 construct: expressed in transfected cells; host or cells: SH-SY5Y (enriched plasma membranes)
# Assay type: biochemical
# Method: For this study, human embryonic kidney (HEK293) cells, permanently co-expressing the different pairs of fusion proteins NOP-RLuc/Gβ1-RGFP and NOP-RLuc/β-arrestin 2-RGFP, and SH-SY5Y cells stably, co-expressing the different pairs of fusion proteins mu-RLuc/Gβ1-RGFP and mu-RLuc/β-arrestin 2-RGFP or delta-RLuc/Gβ1-RGFP and delta-RLuc/β-arrestin 2-RGFP, were used. Cells were prepared and cultured, as described previously.[19],[23] […] The protein concentration in membrane preparations was determined using the QPRO-BCA kit (Cyanagen Srl, Bologna, IT) and the Ensight (PerkinElmer, Waltham, USA) in the spectrophotometer mode.
# Luminescence in membranes was recorded in 96-well untreated white opaque microplates, while in whole cells, it was recorded in 96-well sterile poly-D-lysine-coated white opaque microplates (PerkinElmer, Waltham, MA, USA) using the luminometer Victor 2030 (PerkinElmer, Waltham, MA, USA). […] Coelenterazine at a final concentration of 5 μM was injected 15 min prior to reading the cell plate. Different concentrations of ligands in 20 μL of PBS–BSA 0.01% were added and incubated 5 min before reading luminescence. […] The BRET ratio was measured 15 min after agonist injection. […]
# The pharmacological terminology adopted in this paper is consistent with IUPHAR recommendations.[68] All data are expressed as the mean ± sem of five independent experiments made in duplicate. […]
# T1 sequence (P35372 whole entry, species assumed): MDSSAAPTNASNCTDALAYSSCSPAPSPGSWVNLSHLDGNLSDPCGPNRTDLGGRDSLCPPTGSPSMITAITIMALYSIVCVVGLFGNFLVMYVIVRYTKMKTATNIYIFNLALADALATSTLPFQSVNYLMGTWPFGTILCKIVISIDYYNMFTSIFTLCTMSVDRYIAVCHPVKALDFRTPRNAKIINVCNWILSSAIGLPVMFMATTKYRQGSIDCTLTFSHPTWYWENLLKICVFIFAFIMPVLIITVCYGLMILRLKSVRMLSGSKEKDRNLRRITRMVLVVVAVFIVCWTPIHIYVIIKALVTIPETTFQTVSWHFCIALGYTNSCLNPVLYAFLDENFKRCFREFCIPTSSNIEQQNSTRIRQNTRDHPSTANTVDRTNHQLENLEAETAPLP
row,Molecule,mu/G protein pEC50 (CL95%)
1,CSCC[C@H](NC(=O)[C@H](CC(C)C)NC(=O)[C@H](Cc1c[nH]cn1)NC(=O)[C@H](Cc1ccccc1)NC(=O)[C@@H](CCSC)NC(=O)[C@@H](N)Cc1ccc(O)cc1)C(=O)N[C@@H](CC(=O)O)C(N)=O [Deltorphin A] (H-Y[dM]FHLMD-NH2),crc incomplete

# Target: N/OFQ peptide (NOP) receptor fused to Renilla luciferase (UniProt P41146)
# Remark: another data set of the same source
Molecule,"pEC50 for promoting the NOP/G protein interaction (BRET, membranes with NOP-RLuc and Gβ1-RGFP)","pEC50 for promoting the NOP/β-arrestin 2 interaction (BRET, cells with NOP-RLuc and β-arrestin 2-RGFP)"
[Cha^1]N/OFQ(1–13)-NH2 (peptide),8.93 -log10 M,8.28 -log10 M
FGGFVGARKSARK-NH2 [[Val^5]N/OFQ(1–13)-NH2],7.94 -log10 M,7.38 -log10 M
FGGFNGARKSARK-NH2 [[Asn^5]N/OFQ(1–13)-NH2],8.03 -log10 M,7.56 -log10 M
B1,7.57 -log10 M,7.16 -log10 M
FGGWTGARKSARK-NH2 [[Trp^4]N/OFQ(1–13)-NH2],7.63 -log10 M,7.17 -log10 M

# Target: N/OFQ peptide (NOP) receptor fused to Renilla luciferase (UniProt P41146)
# Remark: another data set of the same source
Molecule,"concentration ratio (EC50 of the ligand / EC50 of N/OFQ(1–13)-NH2) for promoting the NOP/G protein interaction (BRET, membranes); concentration–response curve incomplete","pEC50 for promoting the NOP/G protein interaction (BRET, membranes with NOP-RLuc and Gβ1-RGFP)","pEC50 for promoting the NOP/β-arrestin 2 interaction (BRET, cells with NOP-RLuc and β-arrestin 2-RGFP)"
FGGATGARKSARK-NH2 [[Ala^4]N/OFQ(1–13)-NH2],1000,,
FGAFTGARKSARK-NH2 [[Ala^3]N/OFQ(1–13)-NH2],,7.88 -log10 M,7.54 -log10 M
